Key:
[1] = molecular target: Saccharomyces cerevisiae var. boulardii mitochondrial aldehyde dehydrogenase Ald4p (Saccharomyces cerevisiae var. boulardii (NCYC 3264)) (UniProt P46367); assay: SEC; Sephacryl S-300, buffer G (50 mM Tris/HCl, 17 mM Tris-base, 150 mM NaCl, pH 7.4), 1 ml/min; 200 ul of 60 uM protein by the methods (legend: Ald4p ~20 uM, Ald6p ~60 uM); mass from calibration with standard proteins
[2] = molecular target: the molecule itself; assay: as above
[3] = molecular target: the molecule itself; assay: SDS/PAGE of the untreated purified protein (SDS- and heat-resistant oligomers); purified protein without cross-linker on SDS/PAGE (10% gel); band not reduced by additional DTT (2 mM)
[4] = molecular target: the molecule itself; assay: cross-linking; BS3 (50-800 uM) with 15 uM protein in 100 mM sodium phosphate pH 7.4, 30 C, 35 min; products on SDS/PAGE (10% gel)

## Saccharomyces cerevisiae var. boulardii mitochondrial aldehyde dehydrogenase Ald4p (from UniProt P46367 25-519) (enzyme)
[1]
  stoichiometry N: 3

B1: Saccharomyces cerevisiae var. boulardii cytosolic aldehyde dehydrogenase Ald6p (wild-type) (enzyme, UniProt P54115 1-500, looked up)
chain: MTKLHFDTAEPVKITLPNGLTYEQPTGLFINNKFMKAQDGKTYPVEDPSTENTVCEVSSATTEDVEYAIECADRAFHDTEWATQDPRERGRLLSKLADELESQIDLVSSIEALDNGKTLALARGDVTIAINCLRDAAAYADKVNGRTINTGDGYMNFTTLEPVGVCGQIIPWNFPIMMLAWKIAPALAMGNVCILKPAAVTPLNALYFASLCKKVGIPAGVVNIVPGPGRTVGAALTNDPRIRKLAFTGSTEVGKSVAVDSSESNLKKITLELGGKSAHLVFDDANIKKTLPNLVNGIFKNAGQICSSGSRIYVQEGIYDELLAAFKAYLETEIKVGNPFDKANFQGAITNRQQFDTIMNYIDIGKKEGAKILTGGEKVGDKGYFIRPTVFYDVNEDMRIVKEEIFGPVVTVAKFKTLEEGVEMANSSEFGLGSGIETESLSTGLKVAKMLKAGTVWINTYNDFDSRVPFGGVKQSGYGREMGEEVYHAYTEVKAVRIKL
notes: Ald6p, cytosolic aldehyde dehydrogenase of S. cerevisiae var. boulardii NCYC 3264; differs from the S. cerevisiae S288c protein by valine for isoleucine at position 163; printed mass 54.4 kDa; Removal of the tag is not mentioned; also called cytosolic Ald6p; wild-type Ald6p; source: E. coli Rosetta (DE3), purified (cobalt agarose, dialysis)
[2]
  stoichiometry N: 4
[3]
  stoichiometry N: ~4
[4]
  stoichiometry N: 2
